{"source": "paper PMC4108063", "key": {"[1]": {"target": "human ether-a-go-go-related gene potassium channel (hERG), wild type (human) (UniProt Q12809)"}, "hERG-L586A (human)": {"target": "hERG-L586A (human) (UniProt Q12809)"}, "hERG-D591A (human)": {"target": "hERG-D591A (human) (UniProt Q12809)"}, "hERG-S631A (human)": {"target": "hERG-S631A (human) (UniProt Q12809)"}, "hERG-Y597A (human)": {"target": "hERG-Y597A (human) (UniProt Q12809)"}, "hERG-R582A (human) [2]": {"target": "hERG-R582A (human) (UniProt Q12809)"}, "hERG-K595A (human)": {"target": "hERG-K595A (human) (UniProt Q12809)"}, "hERG-S600A (human)": {"target": "hERG-S600A (human) (UniProt Q12809)"}, "hERG-K610A (human)": {"target": "hERG-K610A (human) (UniProt Q12809)"}, "hERG-N598A (human)": {"target": "hERG-N598A (human) (UniProt Q12809)"}, "hERG-I583A (human) [3]": {"target": "hERG-I583A (human) (UniProt Q12809)"}, "hERG-Q592A (human)": {"target": "hERG-Q592A (human) (UniProt Q12809)"}, "hERG-N588A (human)": {"target": "hERG-N588A (human) (UniProt Q12809)"}, "hERG-P596A (human)": {"target": "hERG-P596A (human) (UniProt Q12809)"}, "hERG-H587A (human)": {"target": "hERG-H587A (human) (UniProt Q12809)"}, "hERG-T613A (human)": {"target": "hERG-T613A (human) (UniProt Q12809)"}, "[4]": {"target": "human ether-a-go-go-related gene potassium channel (hERG), wild type (human) (UniProt Q12809)", "remark": "listed apart in the source"}, "hERG-K608A (human)": {"target": "hERG-K608A (human) (UniProt Q12809)"}, "hERG-R582A (human) [5]": {"target": "hERG-R582A (human) (UniProt Q12809)", "remark": "listed apart in the source"}, "hERG-I583A (human) [6]": {"target": "hERG-I583A (human) (UniProt Q12809)", "remark": "listed apart in the source"}}, "note": "Read-outs that look alike come from different tables or passages of the source.", "data": [{"substance": "scorpion toxin BmKKx2 (peptide)", "values": [{"measurement": "IC50 (half-maximum inhibition concentration) of hERG channel currents, whole-cell patch clamp on transfected HEK293 cells", "setting": "[1]", "value": 26.7, "unit": "nM"}, {"measurement": "IC50 (half-maximum inhibition concentration) of mutant hERG channel currents, whole-cell patch clamp on transfected HEK293 cells", "setting": "hERG-L586A (human)", "value": 24.3, "unit": "nM"}, {"measurement": "IC50 (half-maximum inhibition concentration) of mutant hERG channel currents, whole-cell patch clamp on transfected HEK293 cells", "setting": "hERG-D591A (human)", "value": 19.6, "unit": "nM"}, {"measurement": "IC50 (half-maximum inhibition concentration) of mutant hERG channel currents, whole-cell patch clamp on transfected HEK293 cells", "setting": "hERG-S631A (human)", "value": 698, "unit": "nM"}, {"measurement": "IC50 (half-maximum inhibition concentration) of mutant hERG channel currents, whole-cell patch clamp on transfected HEK293 cells", "setting": "hERG-Y597A (human)", "value": 118, "unit": "nM"}, {"measurement": "IC50 (half-maximum inhibition concentration) of mutant hERG channel currents, whole-cell patch clamp on transfected HEK293 cells", "setting": "hERG-R582A (human) [2]", "value": 76.5, "unit": "nM"}, {"measurement": "IC50 (half-maximum inhibition concentration) of mutant hERG channel currents, whole-cell patch clamp on transfected HEK293 cells", "setting": "hERG-K595A (human)", "value": 65.2, "unit": "nM"}, {"measurement": "IC50 (half-maximum inhibition concentration) of mutant hERG channel currents, whole-cell patch clamp on transfected HEK293 cells", "setting": "hERG-S600A (human)", "value": 12.1, "unit": "nM"}, {"measurement": "IC50 (half-maximum inhibition concentration) of mutant hERG channel currents, whole-cell patch clamp on transfected HEK293 cells", "setting": "hERG-K610A (human)", "value": 6.7, "unit": "nM"}, {"measurement": "IC50 (half-maximum inhibition concentration) of mutant hERG channel currents, whole-cell patch clamp on transfected HEK293 cells", "setting": "hERG-N598A (human)", "value": 15.2, "unit": "nM"}, {"measurement": "IC50 (half-maximum inhibition concentration) of mutant hERG channel currents, whole-cell patch clamp on transfected HEK293 cells", "setting": "hERG-I583A (human) [3]", "value": 87.5, "unit": "nM"}, {"measurement": "IC50 (half-maximum inhibition concentration) of mutant hERG channel currents, whole-cell patch clamp on transfected HEK293 cells", "setting": "hERG-Q592A (human)", "value": 89.5, "unit": "nM"}, {"measurement": "IC50 (half-maximum inhibition concentration) of mutant hERG channel currents, whole-cell patch clamp on transfected HEK293 cells", "setting": "hERG-N588A (human)", "value": 14.5, "unit": "nM"}, {"measurement": "IC50 (half-maximum inhibition concentration) of mutant hERG channel currents, whole-cell patch clamp on transfected HEK293 cells", "setting": "hERG-P596A (human)", "value": 60.8, "unit": "nM"}, {"measurement": "IC50 (half-maximum inhibition concentration) of mutant hERG channel currents, whole-cell patch clamp on transfected HEK293 cells", "setting": "hERG-H587A (human)", "value": 59.7, "unit": "nM"}, {"measurement": "IC50 (half-maximum inhibition concentration) of mutant hERG channel currents, whole-cell patch clamp on transfected HEK293 cells", "setting": "hERG-T613A (human)", "value": 42.6, "unit": "nM"}, {"measurement": "IC50 (half-maximum inhibition concentration) of hERG channel currents, whole-cell patch clamp on transfected HEK293 cells", "setting": "[4]", "value": 6.7, "unit": "nM"}, {"measurement": "IC50 (half-maximum inhibition concentration) of mutant hERG channel currents, whole-cell patch clamp on transfected HEK293 cells", "setting": "hERG-K608A (human)", "value": 116, "unit": "nM"}, {"measurement": "percent of mutant hERG channel currents inhibited by 100 nM BmKKx2, whole-cell patch clamp", "setting": "hERG-R582A (human) [5]", "value": 70, "unit": "%"}, {"measurement": "percent of mutant hERG channel currents inhibited by 100 nM BmKKx2, whole-cell patch clamp", "setting": "hERG-I583A (human) [6]", "value": 70, "unit": "%"}]}]}
